In publication PMC10470895:
“And” between values parts separate entries of the source, which are not always exact repeats. Equal entries are not always repeated. Values belong to the substance of their own block, whether it stands above or below them.

How the values were obtained:
[1] = target: Pyruvate kinase M2 (PKM2) of the X. laevis oocyte nucleus (X. laevis (endogenous in oocytes)); assay: native gel or EMSA; oocyte nuclear homogenate, native PAGE as in Sen et al. (2016), 2x loading buffer with 200 mM KCl, Western blotting with anti-PKM2; Precision Plus markers
[2] = target: X. laevis oocyte GAPDH (glyceraldehyde 3-phosphate dehydrogenase, somatic form; GAPDH.s and GAPDH.l) (X. laevis (endogenous in oocytes)) (UniProt P51469); assay: native gel or EMSA; oocyte nuclear (up to 0.5 nuclei) and cytoplasmic (0.05 cytoplasm) homogenates in HR buffer on Invitrogen 4-16% NativePAGE Bis-Tris gel, Western blotting; compared with the bands of recombinant human GAPDH; second-dimension SDS-PAGE for cytoplasm
[3] = target: recombinant human GAPDH (glyceraldehyde 3-phosphate dehydrogenase) (human) (UniProt P04406); assay: native gel or EMSA; purified recombinant human GAPDH (1 ug) on Invitrogen 4-16% NativePAGE Bis-Tris gel, Western blotting; bands confirmed as GAPDH by second-dimension SDS-PAGE (about 36 kDa)

Chain of recombinant human GAPDH (glyceraldehyde 3-phosphate dehydrogenase), P04406 1-335 (enzyme; other documents disagree on this pair) (P04406 whole entry): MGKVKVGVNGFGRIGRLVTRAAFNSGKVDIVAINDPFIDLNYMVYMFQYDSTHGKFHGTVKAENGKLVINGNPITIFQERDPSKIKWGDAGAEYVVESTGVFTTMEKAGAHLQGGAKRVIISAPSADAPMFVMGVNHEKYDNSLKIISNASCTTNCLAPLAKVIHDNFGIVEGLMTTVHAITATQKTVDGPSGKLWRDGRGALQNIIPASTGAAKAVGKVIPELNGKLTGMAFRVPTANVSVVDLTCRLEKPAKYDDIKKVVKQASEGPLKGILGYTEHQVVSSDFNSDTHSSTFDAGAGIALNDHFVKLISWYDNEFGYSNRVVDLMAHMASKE
Chain of X. laevis oocyte GAPDH (glyceraldehyde 3-phosphate dehydrogenase, somatic form; GAPDH.s and GAPDH.l) (P51469 whole entry): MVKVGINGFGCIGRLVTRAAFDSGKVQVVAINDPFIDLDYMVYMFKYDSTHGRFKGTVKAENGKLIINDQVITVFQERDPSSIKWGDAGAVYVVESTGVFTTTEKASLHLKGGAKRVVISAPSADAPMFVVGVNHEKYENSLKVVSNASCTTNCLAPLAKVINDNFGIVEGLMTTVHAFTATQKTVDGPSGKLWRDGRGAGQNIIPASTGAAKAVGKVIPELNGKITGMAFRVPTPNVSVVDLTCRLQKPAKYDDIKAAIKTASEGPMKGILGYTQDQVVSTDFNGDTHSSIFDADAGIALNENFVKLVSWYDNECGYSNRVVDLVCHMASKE

stoichiometry N [1]: 4
Substance: Pyruvate kinase M2 (PKM2) of the X. laevis oocyte nucleus (enzyme)

stoichiometry N [2]: 4
Substance: X. laevis oocyte GAPDH (glyceraldehyde 3-phosphate dehydrogenase, somatic form; GAPDH.s and GAPDH.l) (from UniProt P51469 1-333) (enzyme)

stoichiometry N [3]: 2 and 4
Substance: recombinant human GAPDH (glyceraldehyde 3-phosphate dehydrogenase), P04406 1-335 (enzyme; other documents disagree on this pair)
